Article PMC7274078, “Brain Endothelial Cells Regulate Glucagon-Like Peptide 1 Entry Into the Brain via a Receptor-Mediated Process” (Frontiers in Physiology, 2020)

How the values were obtained:
[1] = test system: RBMEC and astrocyte barrier; assay: Trans-endothelial GLP-1 transport (Transwell artificial BBB); format: in vitro ADME, rat
Method: The trans-endothelial GLP-1 transport was examined using a Transwell system that mimics the BBB in that RBMECs were co-cultured with astrocytes as illustrated in Figure 7A and previously described ([Gaillard et al., 2001]). Briefly, astrocytes (Thermo Fisher Scientific, Waltham, MA, United States) were seeded on the bottom and RBMECs were then seeded onto the top of the Transwell insert (6.5 mm diameter, 1 μm pore size, polyester membrane; Corning, Corning, NY, United States). Trans-endothelial electrical resistance was monitored using a volt-ohmmeter (EVOM; WPI, Sarasota, FL, United States) and EndOhm chamber (EndOhm; WPI). When the trans-endothelial electrical resistance reached its peak, the insert with double cell layers was washed twice at 37°C with PBS buffer. […] The amount of GLP-1-FAM or inulin-FITC transported to the lower chamber was determined by measuring FAM and FITC fluorescence in the lower chamber at 5, 10, and 30 min. Inulin-FITC transport was used to correct for paracellular transport and the amount of trans-endothelial transport of GLP-1-FAM was calculated using the formula:
Transcellular transport (%)=Fluorescence [FAM]/Reference [FAM]×100−Fluorescence [FITC]/Reference [FITC]×100
Reference refers to fluorescence in the lower chamber at the specified time point when the Transwell inserts had no cells seeded. To determine if this trans-endothelial transport is dose-dependent, 10, 100, and 1,000 pM GLP-1-FAM or inulin-FITC (with DDP-4 inhibitor) was loaded into the upper chamber, the amount of GLP-1-FAM or inulin-FITC in the lower chamber was determined at 10 min, and trans-endothelial transport of GLP-1 was calculated.
FIGURE 7 Trans-endothelial transport of GLP-1 is a GLP-1 receptor-mediated process. […] GLP-1-FAM or inulin-FITC transport to the lower chamber was determined by measuring FAM and FITC fluorescence in the lower chamber. […]

[2] = test system: Rat brain microvascular endothelial cells (RBMECs); assay: Endothelial cell uptake of GLP-1-FAM; format: cell-based; conditions: confocal fluorescence
Method: Rat brain microvascular endothelial cells (RBMECs; Cell Applications, San Diego, CA, United States) were cultured on a cover slip in rat brain endothelial cell growth medium. After reaching confluency, cells were pre-treated with vehicle (PSS buffer), exendin 9-39 (10 nM) or H89 (Sigma-Aldrich, St. Louis, MO, United States) (10 μM) for 30 min or forskolin (Sigma-Aldrich, St. Louis, MO, United States) (10 μM) for 5 min. Cells were then incubated with GLP-1-FAM at either 10, 100 or 1,000 pM for 3 min at 37°C. DAPI was used to stain the nucleus. After fixation and washing three times with cold TBST (5 min each time), cell images were captured using confocal microscope and fluorescence intensity measured using ImageJ software^1. FAM signal from surface binding of FAM was examined by incubating cells with GLP-1-FAM at 4 or 37°C for 3 min, or free FAM (10, 100, and 1,000 pM) at 37°C for 3 min.
FIGURE 5 GLP-1 uptake by RBMECs is GLP-1 receptor and PKA dependent. RBMECs were pretreated with vehicle (PSS buffer, A,E,I), Exendin 9-39 (10 nM, B,F,J) or H89 (10 μM, C,G,K) for 30 min. Cells were then incubated with GLP-1-FAM at 10, 100 pM or 1 nM for 3 min. DAPI was used to stain the nucleus. Images were captured using confocal microscope. Fluorescence density was analyzed using ImageJ. (D,H,L) Quantitative analysis (n = 3, *p < 0.01, vs. vehicle, Student’s t test). GLP-1R – GLP-1 receptor.
FIGURE 6 cAMP agonist increases GLP-1 uptake by RBMECs. (A) RBMECs were incubated with GLP-1-FAM at 10 pM for 3 min with or without 10 μM forskolin. DAPI was used to stain the nucleus. Images was captured using confocal microscope. Fluorescence density was analyzed using ImageJ. (B) quantitative analysis of the images (n = 6, *p < 0.05, vs. vehicle, Student’s t test).

[3] = Circulating GLP-1-FAM / exendin-4-FAM uptake by the brain; format: in vivo; conditions: rat, systemic infusion 30 pmol/kg/min for 10 min; cerebellum, cortex, hippocampus, hypothalamus, brain stem; FAM fluorescence in lysates corrected for vascular space with Dextran-TRITC; n = 7 (GLP-1-FAM), n = 6 (exendin-4-FAM)
Method: Rats received a systemic infusion of either saline or exendin-(9-39) (GLP-1 receptor antagonist, 30 nmol/kg/min, Abcam, Cambridge, United Kingdom) via the jugular vein catheter for 20 min (Figure 1A). In the last 10 min, rats also received 30 pmol/kg/min of either GLP-1-FAM (AnaSpec, Fremont, CA, United States) or exendin-4-FAM (AnaSpec, Fremont, CA, United States) together with Dextran-TRITC (Sigma-Aldrich, St. Louis, MO, United States) (70 kD, vascular space marker, 30 pmol/kg/min). […] After collecting plasma samples, rats were sacrificed via anesthetic overdose and various brain regions (cerebellum, cortex, hippocampus, hypothalamus, and brain stem) collected, homogenized and lysed in lysis buffer. Fluorescence from TRITC and FAM were measured in both plasma and brain lysates. Protein concentrations were determined in the brain lysates. Brain uptake of GLP-1-FAM and exendin-4-FAM were calculated using the following formula:
Tissue fluorescence [FAM]/Tissue weight (μg)−TissueFluorescence [TRITC]/Weight(μg)/PlasmaFluorescence [TRITC]/200(μL)×Plasma Fluorescence [FAM]/200μL
FIGURE 1 GLP-1 and GLP-1 analog exendin-4 enter various brain regions via GLP-1 receptor-mediated process. (A) Protocol. […]

[4] = test system: DPP4; conditions: no reference given; cited from earlier work
Text: GLP-1 receptors are expressed in multiple brain areas in rodents, primates, and humans and they are involved in learning, neuroprotection and regulation of appetite and satiety ([Wei and Mojsov, 1995]; [During et al., 2003]; [Richards et al., 2014]). Global knockout of the GLP-1 receptor in mice impairs synaptic plasticity and memory formation ([Abbas et al., 2009]). […] Indeed, pre-treatment of animals w ...

[5] = in vivo; cited from earlier work
Text: Peptides cross the BBB via transcellular vesicular pathways that may be either constitutive or regulated. […] This is similar to leptin ([Banks et al., 1996]) and insulin ([Gray et al., 2014]; [Meijer et al., 2016]), two appetite regulating hormones secreted peripherally that enter into the brain. || The central actions of GLP-1 and its analogs have been well recognized. GLP-1 analogs have been repeatedly shown to cross the BBB, stimulate brain GLP-1 receptors, and modulate mitochondrial function, protein aggregation, neuroinflammation, synaptic plasticity, learning and memory in experimental models of Parkinson's and Alzheimer's disease ([Athauda and Foltynie, 2016]). Our observation that peripherally administrated GLP-1 and exendin-4 rapidly enter various brain regions is consistent with prior findings that peripherally injected GLP-1 analogs can easily enter the brain ([[…] and Akers ...

| Substance | concentration dependence of trans-endothelial transport ([1]; Transwell, 10, 100 and 1000 pM, 10 min, with DPP4 inhibitor, n = 6, p = 0.37) | transport across the RBMEC and astrocyte barrier, time course ([1]; Transwell, RBMECs co-cultured with astrocytes, 100 pM in upper chamber with DPP4 inhibitor, lower chamber fluorescence at 5, 10 and 30 min, corrected for paracellular transport with inulin-FITC, n = 7) | RBMEC uptake ([2]; 10, 100 and 1,000 pM, 3 min at 37°C, ImageJ) | RBMEC uptake at 4°C ([2]; 3 min at 4°C) | FAM-labeled peptide detected in brain regions (brain uptake) [3] | half-life [4] [h] | stability to DPP4 [4] | time to detection in the brain after intravenous injection [5] [min] |
| --- | --- | --- | --- | --- | --- | --- | --- | --- |
| GLP-1-FAM: FAM-labeled GLP-1 (AnaSpec) | does not appear to be concentration dependent | crossed the barrier in a time-dependent fashion | actively took up | did not take up | detected in various brain regions | – | – | – |
| exendin-4 | – | – | – | – | – | 1.5 | DPP4 resistant | ≤ 5 |
